# Data as given in article PMC2133053 (The Journal of Cell Biology, 1998).
# B1: PKC^D (last three residues changed to aspartic acid), in vitro translated, 35S-labelled (enzyme, Drosophila, UniProt P13677 1-700, looked up)
# chain: MAAAAVATPGATVLPPSVPSAAPGAKAPAAGAGKGPGNLLEITGEANIVNYMKNRLRKGAMKRKGLEMVNGHRFGVRFFKNPTYCGHCKDFIWGFGKQGFQCEECRFNIHQKCCKFVVFKCPGKDTDFDADCAKVKHGWISTTYTTPTFCDECGLLLHGVAHQGVKCENCNLNVHHACQETVPPMCGADISEVRGKLLLYVELKGNNLKVDIKEAANLIPMDTNGFSDPYIAVQMHPDRSGRTKKKTKTIQKNLNPVFNETFTFELQPQDRDKRLLIEVWDWDRTSRNDFMGSFSFSLEELQKEPVDGWYKFLSQVEGEHYNIPCVDAFNDIARLRDEVRHDRRPNEKRRMDNKDMPHNMSKRDMIRAADFNFVKVIGKGSFGKVLLAERRGTDELYAVKVLRKDVIIQTDDMELPMNEKKILALSGRPPFLVSMHSCFQTMDRLFFVMEYCKGGDLMYHMQQYGRFKESVAIFYAVEVAIALFFLHERDIIYRDLKLDNILLDGEGHVKLVDFGLSKEGVTERQTTRTFCGTPNYMAPEIVSYDPYSIAADWWSFGVLLFEFMAGQAPFEGDDETTVFRNIKDKKAVFPKHFSVEAMDIITSFLTKKPNNRLGAGRYARQEITTHPFFRNVDWDKAEACEMEPPIKPMIKHRKDISNFDDAFTKEKTDLTPTDKLFMMNLDQNDFIGFSFMNPEFIDDD
# modifications: [35S]methionine label
# Target: GST–INAD fusion protein (full-length INAD in pGEX5.1) (Drosophila, UniProt Q24008 1-674)
# Test: pull-down
binder,measurement,value
B1,fold reduction of binding relative to wild-type PKC,~8 fold
